Measured values taken from patent US20100286027A1, “ANTI-BACTERIAL COMPOSITIONS” (priority 2008, published 2010).

Assays:
[1] = tested on: P. aeruginosa NB52020* (mexAB/oprM efflux pump mutant); assay: MIC against aerobic gram negative bacteria, efflux pump mutant; assay type: cell-based, Pseudomonas aeruginosa; conditions: aerobic gram negative; P. aeruginosa NB52020*, mexAB/oprM efflux pump mutant strain
[2] = tested on: Clostridium difficile NB95002; assay: MIC against anaerobic bacteria; assay type: cell-based
[3] = tested on: Propionibacterium acnes NB99001; assay: MIC against anaerobic bacteria; assay type: cell-based
Escherichia coli (8739) = assay: BacTiter-Glo bacterial ATP content viability assay; conditions: gram −, +/− SD, n = 3, >100 = activity detected but <50% inhibition
Bacillus Subtilis (6633) = assay: BacTiter-Glo bacterial ATP content viability assay; conditions: Bacillus Subtilis (6633), gram +; +/− SD, n = 3; >100 = activity detected but <50% inhibition
P. aeruginosa NB52019 = assay: MIC against aerobic gram negative bacteria; assay type: cell-based, Pseudomonas aeruginosa
[4] = tested on: Clostridium ramosum NB95010; assay: MIC against anaerobic bacteria; assay type: cell-based
porins (OmpC and OmpF) = assay: LRR domain affinity column and mass spectrometry protein identification; conditions: guanidinium HCl extract of detergent-insoluble E. coli fraction; SDS-PAGE, mass spectrometry
[5] = tested on: Enterococcus faecalis (29212); assay: BacTiter-Glo bacterial ATP content viability assay; conditions: Enterococcus faecalis (29212), gram +; +/− SD, n = 3; >100 = activity detected but <50% inhibition
E. coli = assay: Aggregation of E. coli in vitro, light microscopy; parameters: species or system Escherichia coli; conditions: 10^6 E. coli in 1 ml PBS, 20 microgram/ml protein, 12 hours
Description: FIG. 4: Aggregation of E. coli in vitro following incubation with recombinant Nod2 LRR domains. E. coli (10^6) in 1 ml of PBS were incubated with either 20 microgram/ml BSA or purified recombinant Nod2 LRR domains for 12 hours. Aliquots of the cultures were inoculated on a coverslipped slide and analyzed by light microscopy using a 63× objective.
The Nod2 positive staining of the bacteria in the cytoplasm of cultured cells could either be a direct interaction or result from the colocalization of Nod2 and bacteria in an unidentified vesicular structure. In order to test the hypothesis that the interaction between Nod2 and E. coli was direct, purified recombinant LRR domains from Nod2 were incubated with E. coli (FIG. 4). […] This supports the hypothesis that Nod2 LRR domains can directly interact with E. coli.

Escherichia coli (25922) = assay: BacTiter-Glo bacterial ATP content viability assay; conditions: gram −, +/− SD, n = 3, >100 = activity detected but <50% inhibition
[6] = tested on: Stenotrophomonas maltophilia (17666); assay: BacTiter-Glo bacterial ATP content viability assay; conditions: gram −, +/− SD, n = 3, >100 = activity detected but <50% inhibition
Staphylococcus aureus = assay: Competition assay of Nod2 LRR activity against S. aureus; assay type: cell-based; conditions: then live S. aureus
Description: FIG. 6: Purified Nod2 LRR domains (Nod2: 30 microgram/ml) were preincubated with 200 microgram/ml of the indicated bacterial component prior to addition to Staphylococcus aureus. BSA was added as a protein control. Commercial […] extracts (sPGN: soluble […], iPGN: insoluble proteoglycan), lipoteichoic acid (LTA: crude lipoteichoic acid extract, upLTA: ultrapure lipoteichoic acid extract), or heat-killed S. aureus (HKSA) were used. Control indicates bacterial growth in the presence of BSA only.
If this interaction was the initiating factor for the Nod2 LRR antimicrobial effects, preincubating the domains with bacterial components containing this motif would be expected to inhibit the antibacterial activity. A competition assay was set up using Nod2 LRR activity against S. aureus. The recombinant LRR domains or BSA (control) were preincubated with various components of the S. aureus membrane prior to addition to live S. aureus and the bacterial viability assessed as in Table 1 above (FIG. 6).

[7] = tested on: lawn of the indicated bacteria; assay: Agar diffusion assay; conditions: FIG. 11 Panel D; 0.5 mg/ml in sterile PBS per well
E. coli NB27004 = assay: MIC against aerobic gram negative bacteria; assay type: cell-based, Escherichia coli
[8] = tested on: Clostridium perfringens NB95001; assay type: cell-based; conditions: anaerobic
[9] = tested on: gram-positive and gram-negative anaerobic bacteria; assay: MIC against panel of anaerobic bacteria, comparison with ciprofloxacin; assay type: cell-based; conditions: against all the anaerobic bacteria tested; molecular weights ~30000 da and 386 da
H. influenzae NB65027 = conditions: aerobic gram negative
B. subtilis [10] = assay: Membrane polarity, DiBAC4 uptake by flow cytometry; conditions: FIG. 11 Panels B and C; 5×10^5 bacteria in 100 μL, 2 hours at 37° C.
[11] = tested on: Klebsiella pneumoniae (700603); assay: BacTiter-Glo bacterial ATP content viability assay; conditions: gram −, +/− SD, n = 3, >100 = activity detected but <50% inhibition
[12] = tested on: Peptostreptococcus anaerobius NB97001; assay: MIC against anaerobic bacteria; assay type: cell-based
[13] = tested on: Streptococcus pneumoniae (49619); assay: BacTiter-Glo bacterial ATP content viability assay; conditions: gram +, +/− SD, n = 3, >100 = activity detected but <50% inhibition
[14] = tested on: Fusobacterium nucleatum NB86006; assay: MIC against anaerobic bacteria; assay type: cell-based
B. subtilis [15] = assay: Bacterial growth inhibition (FIG. 14); assay type: cell-based, Bacillus subtilis; conditions: FIG. 14 Panel A; increasing concentrations, relative to controls (100%)
Description: Values shown are relative to controls incubated in the absence of LRR domains (100%).

[16] = tested on: Streptococcus pneumoniae (ATCC 49619); assay: Gentamycin protection assay in stable 293 cell lines; conditions: 293 cells stably expressing the protein, infected with S. pneumoniae at MOI 10:1, versus control cells

B1: Nod2: purified recombinant LRR domain of Nod2 expressed in E. coli; human NOD2-LRR is SEQ ID NO: 3; ~30000 da (protein, listed as Homo sapiens)
chain: PAAPGEAKSVHAMPGFIWLIRSLYEMQEERLARKAARGLNVGHLKLTFCSVGPTECAALAFVLQHLRRPVALQLDYNSVGDIGVEQLLPCLGVCKALYLRDNNISDRGICKLIECALHCEQLQKLALFNNKLTDGCAHSMAKLLACRQNFLALRLGNNYITAAGAQVLAEGLRGNTSLQFLGFWGNRVGDEGAQALAEALGDHQSLRWLSLVGNNIGSVGAQALALMLAKNVMLEELCLEENHLQDEGVCSLAEGLKKNSSLKILKLSNNCITYLGAEALLQALERNDTILEVWLRGNTFSLEEVDKLGCRDTRLLL
notes: purified recombinant LRR domain of Nod2 expressed in E. coli; ~30000 da
In the case of B1, the “minimal inhibitory concentration (MIC)” value [1] is reported as >128 microgram/ml, the “minimal inhibitory concentration (MIC)” value [2] is reported as 4 microgram/ml and the “minimal inhibitory concentration (MIC)” value [3] is reported as 4 microgram/ml. The “antibacterial activity by bacterial ATP content (IC50), [LRR domain]” value (shortened to “antibacterial activity”) (Escherichia coli (8739)) was >100 microgram/ml, the “antibacterial activity” value (Bacillus Subtilis (6633)) was 3.9 +/− 0.6 microgram/ml and the “minimal inhibitory concentration (MIC)” value (P. aeruginosa NB52019) was >128 microgram/ml. For the same molecule, the “minimal inhibitory concentration (MIC)” value [4] was 4 microgram/ml, the “porins (OmpC and OmpF) identified in eluate of LRR affinity column” value (porins (OmpC and OmpF)) was “specifically identified in the eluate” and the “antibacterial activity” value [5] was 6.8 +/− 1.6 microgram/ml. The “aggregation of E. coli” value (E. coli) was “aggregated and debris could be observed”, the “antibacterial activity” value (Escherichia coli (25922)) was >100 microgram/ml and the “antibacterial activity” value [6] was “None detected”. The “inhibition of antibacterial effect by preincubation with heat-killed S. aureus” value (Staphylococcus aureus; Nod2 30 microgram/ml preincubated with 200 microgram/ml HKSA) was “Only heat-killed S. aureus was capable of inhibiting”, the “inhibition of antibacterial effect by preincubation with proteoglycan or lipoteichoic acid” value (Staphylococcus aureus; Nod2 30 microgram/ml preincubated with 200 microgram/ml bacterial component) was “Neither S. aureus proteoglycan containing the MDP motif, nor lipoteichoic acid inhibited” and the “anti-bacterial activity by agar diffusion assay” value [7] was “Anti-bacterial activity”. For the same molecule, the “minimal inhibitory concentration (MIC)” value (E. coli NB27004) was >128 microgram/ml, the “minimal inhibitory concentration (MIC)” value [8] was 4 microgram/ml and the “potency relative to ciprofloxacin on a molar (mmoles/ml) basis” value [9] was 25-200 times. The “minimal inhibitory concentration (MIC)” value (H. influenzae NB65027) was >128 microgram/ml, the “membrane polarity of B. subtilis (depolarised bacteria taking up DiBAC4)” value (B. subtilis [10]) was “influence” and the “antibacterial activity” value [11] was “None detected”. For the same molecule, the “minimal inhibitory concentration (MIC)” value [12] was 2 microgram/ml, the “antibacterial activity” value [13] was 3.0 +/− 1.6 microgram/ml and the “minimal inhibitory concentration (MIC)” value [14] was 8 microgram/ml. The “growth of B. Subtilis” value (B. subtilis [15]) was “inhibits the growth” and the “number of gentamycin-protected intracellular bacteria” value [16] was “drastically reduced”.
